Measurements reported in patent publication US20250051437A1.
One block for each substance: values may come before it.

Assays:
[1] = target: human cadherin-17 (CDH17), endogenously expressed on human cancer cell lines (LS513, SNU-C1, PaTu8988s, HPAF-II) (human) (UniProt Q12864); test: indirect flow cytometry (iQue) on LS513 cells (CDH17+); secondary antibody only, background control
[2] = target: human cadherin-17 (CDH17), endogenously expressed on human cancer cell lines (LS513, SNU-C1, PaTu8988s, HPAF-II) (human) (UniProt Q12864); test: flow cytometry (iQue) on LS513 cells; secondary antibody only, background control
[3] = target: human cadherin-17 (CDH17), endogenously expressed on human cancer cell lines (LS513, SNU-C1, PaTu8988s, HPAF-II) (human) (UniProt Q12864); test: flow cytometry (iQue) on SNUC1 cells; secondary antibody only, background control
[4] = target: human cadherin-17 (CDH17), endogenously expressed on human cancer cell lines (LS513, SNU-C1, PaTu8988s, HPAF-II) (human) (UniProt Q12864); test: flow cytometry (iQue) on PATU8988S cells; secondary antibody only, background control
[5] = target: human CDH17-mGFP fusion protein overexpressed on HEK293T cells (clone G11) (human) (UniProt Q12864); test: flow cytometry (iQue) on HEK293T CDH17 mGFP clone G11 (human); secondary antibody only, background control
[6] = target: human CDH17-mGFP fusion protein overexpressed on HEK293T cells (clone G11) (human) (UniProt Q12864); test: flow cytometry (BD C6), secondary antibody alone on HEK293T CDH17 mGFP G11 cells; on HEK293T Parental: 507.66
[7] = target: mouse CDH17-mGFP fusion protein overexpressed on HEK293T cells (mouse) (UniProt Q9R100); test: flow cytometry (BD C6), secondary antibody alone on HEK293T Mouse CDH17 mGFP cells; on HEK293T Parental: 507.66
[8] = target: rat CDH17 fused to moxGFP, overexpressed on HEK293T cells (rat) (UniProt P55281); test: flow cytometry (BD C6), secondary antibody alone on HEK293T Rat CDH17 moxGFP cells; on HEK293T Parental: 507.66
[9] = target: monkey (crab-eating macaque) CDH17 fused to moxGFP, overexpressed on HEK293T cells (monkey (crab-eating macaque)); test: flow cytometry (BD C6), secondary antibody alone on HEK293T Macaque CDH17 moxGFP cells; on HEK293T Parental: 507.66
BT474 Cells = test: KinExA using BT474 Cells

mouse CDH17-mGFP fusion protein overexpressed on HEK293T cells (mouse), sequence (Q9R100 26-827): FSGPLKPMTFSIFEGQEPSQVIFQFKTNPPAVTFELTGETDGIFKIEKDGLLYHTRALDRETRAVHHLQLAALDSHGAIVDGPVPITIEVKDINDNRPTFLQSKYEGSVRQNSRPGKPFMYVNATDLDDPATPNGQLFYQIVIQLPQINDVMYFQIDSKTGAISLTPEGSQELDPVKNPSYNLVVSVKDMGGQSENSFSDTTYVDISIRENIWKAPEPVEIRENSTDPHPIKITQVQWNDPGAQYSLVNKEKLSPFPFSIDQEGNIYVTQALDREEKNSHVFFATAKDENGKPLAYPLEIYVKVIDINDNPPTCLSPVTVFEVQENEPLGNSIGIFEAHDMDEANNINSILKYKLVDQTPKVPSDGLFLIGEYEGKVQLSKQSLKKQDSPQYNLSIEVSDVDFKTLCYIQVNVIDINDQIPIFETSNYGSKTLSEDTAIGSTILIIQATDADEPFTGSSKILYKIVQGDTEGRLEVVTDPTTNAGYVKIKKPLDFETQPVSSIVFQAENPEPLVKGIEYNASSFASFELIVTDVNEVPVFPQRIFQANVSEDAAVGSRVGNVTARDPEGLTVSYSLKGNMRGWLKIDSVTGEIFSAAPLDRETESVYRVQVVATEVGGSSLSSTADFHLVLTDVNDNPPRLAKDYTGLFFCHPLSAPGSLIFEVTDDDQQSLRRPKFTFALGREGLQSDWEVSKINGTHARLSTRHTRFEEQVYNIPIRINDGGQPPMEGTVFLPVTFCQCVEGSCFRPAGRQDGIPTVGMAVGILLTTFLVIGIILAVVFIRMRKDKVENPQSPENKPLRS
rat CDH17 fused to moxGFP, overexpressed on HEK293T cells (rat), sequence (P55281 22-827): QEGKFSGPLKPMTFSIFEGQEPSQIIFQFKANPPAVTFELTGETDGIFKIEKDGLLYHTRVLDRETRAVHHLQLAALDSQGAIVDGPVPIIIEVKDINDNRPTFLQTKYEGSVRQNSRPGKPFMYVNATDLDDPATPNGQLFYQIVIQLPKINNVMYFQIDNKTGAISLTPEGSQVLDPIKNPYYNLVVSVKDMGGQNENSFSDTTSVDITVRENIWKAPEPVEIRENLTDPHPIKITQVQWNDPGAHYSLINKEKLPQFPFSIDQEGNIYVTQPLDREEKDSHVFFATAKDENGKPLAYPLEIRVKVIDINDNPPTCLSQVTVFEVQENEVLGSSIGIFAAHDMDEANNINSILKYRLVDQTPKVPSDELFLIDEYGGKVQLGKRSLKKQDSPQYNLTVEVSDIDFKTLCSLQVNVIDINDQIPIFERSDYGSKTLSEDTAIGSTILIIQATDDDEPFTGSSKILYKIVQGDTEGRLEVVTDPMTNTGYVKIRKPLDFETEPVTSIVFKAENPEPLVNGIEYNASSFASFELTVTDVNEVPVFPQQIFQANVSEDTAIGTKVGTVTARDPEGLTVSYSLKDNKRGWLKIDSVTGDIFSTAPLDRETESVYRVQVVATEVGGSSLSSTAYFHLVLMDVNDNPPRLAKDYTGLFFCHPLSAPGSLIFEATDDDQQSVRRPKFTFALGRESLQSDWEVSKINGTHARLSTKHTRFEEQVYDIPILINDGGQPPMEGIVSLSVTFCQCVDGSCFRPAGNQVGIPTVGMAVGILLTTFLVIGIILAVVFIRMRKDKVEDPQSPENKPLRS

- FL4-H [1]: 33200
Substance: AF647-anti-his tag 2° Ab (secondary antibody alone, control)

- Antibody Binding Activity by Flow iQue [2]: 4900
- Antibody Binding Activity by Flow iQue [3]: 3900
- Antibody Binding Activity by Flow iQue [4]: 5930
- Antibody Binding Activity by Flow iQue [5]: 1960
- FL4-H [6]: 727
- FL4-H [7]: 740
- FL4-H [8]: 633
- FL4-H [9]: 720
Substance: fluorochrome-labelled anti-human IgG secondary antibody alone (2nd Ab only control)

- Kd (BT474 Cells): 0.769 nM
Substance: Herceptin (antibody)
